Test [1] has as its target T1, human AXL expressed on the cell surface of tumor cell lines (human, UniProt P30530 26-894).
T1 sequence (looked up): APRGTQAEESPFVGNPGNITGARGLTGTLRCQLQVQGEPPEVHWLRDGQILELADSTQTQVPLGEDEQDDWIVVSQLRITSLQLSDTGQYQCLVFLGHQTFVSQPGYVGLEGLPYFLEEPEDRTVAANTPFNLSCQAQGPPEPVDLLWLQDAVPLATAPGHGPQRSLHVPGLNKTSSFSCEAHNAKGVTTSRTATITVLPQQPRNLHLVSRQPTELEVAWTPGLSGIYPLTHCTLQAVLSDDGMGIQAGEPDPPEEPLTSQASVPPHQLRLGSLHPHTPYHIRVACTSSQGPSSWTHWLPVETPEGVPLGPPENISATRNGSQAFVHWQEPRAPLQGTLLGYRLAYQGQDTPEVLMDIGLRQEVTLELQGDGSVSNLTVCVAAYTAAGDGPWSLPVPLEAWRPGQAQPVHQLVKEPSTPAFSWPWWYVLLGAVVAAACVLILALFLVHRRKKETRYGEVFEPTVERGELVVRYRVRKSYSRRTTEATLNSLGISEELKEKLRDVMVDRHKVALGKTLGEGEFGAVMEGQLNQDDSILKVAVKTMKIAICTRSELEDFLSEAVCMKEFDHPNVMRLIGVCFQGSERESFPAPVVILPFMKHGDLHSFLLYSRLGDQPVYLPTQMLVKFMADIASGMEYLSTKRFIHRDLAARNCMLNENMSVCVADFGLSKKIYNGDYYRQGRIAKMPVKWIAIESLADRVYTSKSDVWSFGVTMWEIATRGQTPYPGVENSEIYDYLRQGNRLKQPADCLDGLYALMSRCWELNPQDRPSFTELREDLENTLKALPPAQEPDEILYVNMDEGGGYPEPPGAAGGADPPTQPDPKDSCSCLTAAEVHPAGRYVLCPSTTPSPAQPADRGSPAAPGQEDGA
Kind of test: cell-based or functional assay.

Test [2] addresses T1, human AXL expressed on the cell surface …. Kind of test: cell-based or functional assay. This is another data set of the same source.
For test [3] the target is unchanged. Kind of test: FACS on NCI-H292 cells, apparent Kd, human Fc format. On the procedure:
(§1) FACS binding assay. Adherent cells were dissociated with non-enzymatic Sigma Cell Dissociation Solution (Cat. No. C5789). Cells suspensions were added to polypropylene, V-bottom 96-well plates and incubated for 2 hours on ice with primary antibodies at concentrations ranging from 100 nM to 0.001 nM or at a single dose of 100 nM (for the non-specific control). After incubation and washes, cells were incubated with fluorescently labeled secondary antibody (Alexa Fluor® 488 anti-human IgG from Jackson Cat. No 709-546-098) for 1 hour on ice, then washed. Cell viability was determined using Fixable viability dye 450 (20 min on ice). Stained cells were fixed in 1% formaldehyde at 4° C. and stored at 4° C. until acquisition which was performed the next day.
(§2) Binding of recombinant chimeric Abs to three cell lines was assessed by FACS as described above. The apparent Bmax and Kd determination is shown below in Table 14.

The target in test [4] is T2, recombinant human AXL extracellular domain, C-terminally His8-tagged (rhAXL-ECD) (human, UniProt P30530 26-451).
T2 construct: Made in CHO cells; also called (rh)AXL-ECD His8; human AXL ECD
T2 sequence: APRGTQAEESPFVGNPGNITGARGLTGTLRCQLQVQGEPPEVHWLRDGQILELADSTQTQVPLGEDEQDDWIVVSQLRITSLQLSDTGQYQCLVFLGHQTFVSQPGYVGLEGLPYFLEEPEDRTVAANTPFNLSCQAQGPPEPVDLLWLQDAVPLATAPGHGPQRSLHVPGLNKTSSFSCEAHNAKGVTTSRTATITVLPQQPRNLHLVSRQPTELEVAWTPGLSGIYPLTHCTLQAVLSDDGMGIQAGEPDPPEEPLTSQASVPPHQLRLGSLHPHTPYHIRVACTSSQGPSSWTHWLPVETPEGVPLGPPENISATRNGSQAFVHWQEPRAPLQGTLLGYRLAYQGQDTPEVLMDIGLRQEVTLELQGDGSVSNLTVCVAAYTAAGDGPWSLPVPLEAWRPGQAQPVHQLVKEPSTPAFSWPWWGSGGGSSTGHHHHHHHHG
Put plainly: SPR, VHH-Fc captured, AXL ECD flowed, single-concentration kinetics (estimate). The method, then:
(§3) For VH Hs and VHH-Fcs, binding to human and cynomolgus AXL ECD was assessed using either a Biacore T200 instrument or a Biacore 3000 instrument. Either human AXL ECD or anti-human Fc antibody was immobilized on a research-grade CM5 series S sensor chip (T200, rhAXL ECD) or a C1 sensor chip (3000, anti-human Fc) using amine coupling in acetate buffer. VHH-Fcs were captured on anti-human Fc surfaces. Either monomeric VHHs (for rhAXL ECD surfaces) or human and cyno AXL ECD (for VHH-Fc surfaces) were flowed over the surfaces at different concentration ranges. Running buffers were HBS-EP (3000) and HBS-EP+(T200). Flow rates were 10-40 ul/min. All binding studies were performed at 25° C. Surfaces were regenerated using 10 mM glycine, pH 1.5.

The target in test [5] is T1, human AXL expressed on the cell surface …. Kind of test: FACS on SKOV3 cells, apparent Kd, human Fc format. The method, then:
as §1, §2

For test [6], the target named is T2, recombinant human AXL extracellular …. Kind of test: SPR, VHH-Fc captured, AXL ECD flowed, single-cycle kinetics. On the procedure:
as §3
On the technique in general: SPR reads the build-up and loss of mass on a sensor chip optically.

The target in test [7] is T3, mouse AXL extracellular domain (Sino cat. 51026-M08H) (mouse, UniProt Q00993 19-445).
T3 construct: extracellular domain; Bought protein; also called mouse AXL ECD
T3 sequence (looked up): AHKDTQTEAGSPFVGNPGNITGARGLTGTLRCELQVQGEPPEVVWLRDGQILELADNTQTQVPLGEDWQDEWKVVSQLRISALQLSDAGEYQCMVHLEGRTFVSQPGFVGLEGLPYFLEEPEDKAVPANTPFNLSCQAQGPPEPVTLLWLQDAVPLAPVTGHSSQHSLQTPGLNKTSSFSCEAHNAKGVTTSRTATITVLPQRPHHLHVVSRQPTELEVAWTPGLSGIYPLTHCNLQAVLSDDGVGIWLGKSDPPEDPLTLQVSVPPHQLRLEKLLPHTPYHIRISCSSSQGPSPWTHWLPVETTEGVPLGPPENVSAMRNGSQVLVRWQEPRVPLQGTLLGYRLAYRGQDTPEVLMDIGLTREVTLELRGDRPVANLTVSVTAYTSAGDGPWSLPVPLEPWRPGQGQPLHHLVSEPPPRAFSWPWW
Kind of test: ELISA on coated mouse AXL ECD (100 ng/well), VHH-Fc. On the procedure: (§4) ELISA. ELISAs against human, cyno and mouse AXL ECDs were conducted by immobilizing 100 ng of each protein in wells of Nunc MaxiSorp microplates overnight. Human AXL (aa 1-451) and cyno AXL (aa 1-449) were produced recombinantly as described in Example 10. Mouse AXL was purchased from Sino (cat. 51026-M08H). The next day, plates were blocked with 5% (w/v) dried milk in PBS. Murine mAbs (either hybridoma- or recombinantly-produced) or VHH-Fcs were diluted in PBS containing 1% BSA and 0.1% Tween-20 and added to wells for 2 hours at room temperature. Wells were washed 5× with PBS containing 0.1% Tween-20, then HRP-labeled protein A (diluted 1:1000 in PBS containing 1% BSA and 0.1% Tween™-20) was added to wells for 1 hour at room temperature. Wells were washed again 5× with PBS/0.1% Tween-20 and developed using TMB substrate. Absorbance was measured at 450 nm. As a positive control for mouse AXL binding, a commercial anti-mouse AXL mAb (clone 175128, R&D Systems MAB8541, rat IgG2A) was used and detected with donkey […] secondary antibody.
On the technique in general: In an ELISA, binding on a coated surface is turned into a signal by an enzyme label.

Test [8] addresses T1, human AXL expressed on the cell surface …. Put plainly: FACS on MDA-MB-231 luciferase cells, apparent Kd, human Fc format. The method, then:
as §1, §2

Test [9] concerns the target T2, recombinant human AXL extracellular …. Kind of test: ELISA on coated AXL ECD (100 ng/well), VHH-Fc, HRP-protein A. On the procedure:
as §4

The target in test [10] is T4, huMER-ECD displayed on yeast (human, UniProt Q12866 21-505).
T4 construct: extracellular domain
T4 sequence (looked up): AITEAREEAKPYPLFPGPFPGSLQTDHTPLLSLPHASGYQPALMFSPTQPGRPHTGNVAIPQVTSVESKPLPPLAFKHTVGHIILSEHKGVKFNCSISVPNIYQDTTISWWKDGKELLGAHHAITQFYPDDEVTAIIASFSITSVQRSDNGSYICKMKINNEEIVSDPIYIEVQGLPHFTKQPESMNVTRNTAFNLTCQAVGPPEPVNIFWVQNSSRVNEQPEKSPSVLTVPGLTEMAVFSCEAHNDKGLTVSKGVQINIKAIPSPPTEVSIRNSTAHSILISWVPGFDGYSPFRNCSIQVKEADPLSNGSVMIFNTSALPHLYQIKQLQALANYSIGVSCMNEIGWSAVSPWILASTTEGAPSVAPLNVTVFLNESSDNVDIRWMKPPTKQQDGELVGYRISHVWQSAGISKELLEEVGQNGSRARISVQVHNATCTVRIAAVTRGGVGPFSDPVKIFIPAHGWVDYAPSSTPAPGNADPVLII
Kind of test: yeast surface display ELISA, non-denatured yeast, goat anti-human F(ab')2-HRP.

The target of test [11] is T5, cyAXL-ECD displayed on yeast.
T5 construct: extracellular domain; 'cy' read as cynomolgus
Described as above.

B1: hFc-F111-5E9-DM1 (antibody, human IgG1, kappa, V domains shown)
VH: QIQLVQSGPELKKPGETVKISCKASGYTFTKYGMNWVKQAPGKGLKWMGWINTYTGEPTYADDFKGRFAFSLETSASTAYLQINNLTTEDMVTYFCAKGGYYSNPIYPMDYWGQGTSVTVSS
VL: DIQMTQTTSSLSASLGDRVTISCRASQDINNYLNWYQQKPDGTVKLLIYYISRLHSGVPSRFSGSGSGTDYSLTISNLELEDVATYFCQQGNTLPFTFGSGTKLEIKR
modifications: DM1 through SMCC linker on lysine residues; sites not given
For the molecule B1, in test [1], the “IC50 (read off the curve), growth inhibition of H292 cells, with added Gas6 (squares)” value is about 0.04 nM and the “IC50 (read off the curve), growth inhibition of H292 cells, without added Gas6 (circles)” value was about 0.04 nM. In test [2], the “IC50 of growth inhibition (CellTiterGlo, 5 days) of NCI-H292 cells, -Gas6” value turned out to be 0.084 nM and the “IC50 of growth inhibition of NCI-H292 cells, +Gas6 (2 µg/mL)” value is 0.074 nM.

B2: NRC-sdAb008-Fc (VHH-human IgG1 Fc fusion) (Fc fusion)
chain: QVKLEESGGGLVQAGGSLRLSCAASGSSGMINTMGWYRQAPGKQRELVARRSTGGTTNYADSVKGRFTISRDDANNTVYLQMNSLKPEDTAVYYCAIIWRTSDLTGRFNTWGQGTQVTVSS
notes: VHH fused N-terminally to human IgG1 Fc; also called NRC-sdAb008-hIgG1; not shown: human IgG1 Fc
On to B2, for which the Kd in test [3] was 0.0414 nM; in test [4], 2 nM; in test [5] it was 0.0549 nM; in test [6], 1 nM; in test [8], 0.122 nM. The values for the dissociation rate constant (koff) in [4] and in test [6] were 0.0082 s⁻¹ and 0.0033 s⁻¹, respectively. Further, the on-rate constant (kon) is 5.3e+06 M⁻¹ s⁻¹ in test [4] and 3.3e+06 M⁻¹ s⁻¹ in test [6]. Besides, in test [7], the binding result is reported as “no binding”. Besides, in test [9], the half-maximal effective concentration (EC50) amounted to 1 nM.

B3: NRC-sdAb002-Fc (VHH-human IgG1 Fc fusion) (Fc fusion)
chain: QVQLVDSGGGLVQAGGSLRLSCATSTRTVSSAVMAWFRQAPEKVRDFVGFITNSGNILYDDSVKGRFTISRDNAQNTVYLQMNSLKPEDTAVYYCAAKWSFSSGYGDLRRAAMYDYWGQGTQVTVSS
notes: VHH fused N-terminally to human IgG1 Fc; also called NRC-sdAb0002-Fc; NRC-sdAb002-hIgG1; not shown: human IgG1 Fc
Regarding B3, the figures for the “yeast ELISA signal normalized to myc expression level” value in [10] and in test [11] were 0.01 and 0.76, respectively.

B4: hFc-F107-10G1-DM1 (antibody, human IgG1, kappa, V domains shown)
VH: EVNLVESGGGVVKPGASLKLSCEASGFTFSNYGMSWVRQTSDKRLEWVASISGGGGRTYYLDNVKGRFIISRENAKNTLYLQMSSLKSEDTALFYCARGARASYFAMDYWGQGSSVTVSS
VL: VIVMTQSHKFMSTSVGDRVSITCKASQDVTTAVAWYQQKPGQSPKLLIYWASTRHTGVPDRFTGSGSGTDYSLTISNVQTEDLAFYYCQQHFTTPLTFGAGTKLELKR
modifications: DM1 through SMCC linker on lysine residues; sites not given
With B4, the “IC50 (read off the curve), growth inhibition of H292 cells, without added Gas6 (circles)” value in test [1] was about 0.004 nM. Further, in test [2], the “IC50 of growth inhibition (CellTiterGlo, 5 days) of NCI-H292 cells, -Gas6” value came out at 0.013 nM and the “IC50 of growth inhibition of NCI-H292 cells, +Gas6 (2 µg/mL)” value was 0.46 nM.

As a reminder, the koff is a measure of how fast the partners let go of each other. The kon is the rate constant with which the complex forms. By EC50 is commonly meant the concentration giving half of the maximal effect.

Values taken from patent US20240076389A1 (NATIONAL RESEARCH COUNCIL OF CANADA, published 2024).
